The test system of one data set is apoCIII. Particulars: transcriptional level; cited from earlier work.
Data set [1] deals with ABCA1-mediated cholesterol efflux from mouse peritoneal macrophages. Kind of data set: Cholesterol efflux to apoA-I from cholesterol-loaded macrophages. As to conditions: 1 and 5 μM ATRA.
Data set [2] deals with T1, RARβ/RXRα heterodimer (Homo sapiens, UniProt P10826;P19793 P10826:1-455,P19793:1-462). Kind of data set: EMSA; not shown. Particulars: tags: TNT wheat germ; label: 32P. The text has this: (§1) RARs and LXRα and RXRα proteins were in vitro translated by using the TNT-coupled wheat germ extract systems (Promega). Double-strand oligonucleotides corresponding to the wild-type ABCA1 DR4 element 5′-[…]-3′ and the mutated sequence 5′-[…]-3′ were used, and electrophoresis mobility shift assays (EMSAs) were done with ³²P-labeled probes as described previously (6). For competition experiments, a 30-fold molar excess of cold unlabeled competitor DNA relative to labeled DNA was used. […] The oligonucleotides 5′-[…]-3′ and 5′-[…]-3′ were, respectively, used in EMSA analysis of DR4 elements a and b of the murine SREBP-1c promoter.
A general note: A gel shift assay detects complexes by their altered migration in electrophoresis.

Data set [3] concerns the target T2, RARα/RXRα heterodimer (Homo sapiens, UniProt P10276;P19793 P10276:1-462,P19793:1-462). The experiment in a line: EMSA; not shown. As to conditions: tags: TNT wheat germ; label: 32P.
Source text: as §1

Data set [4] deals with T3, RARγ/RXRα heterodimer (Homo sapiens, UniProt P13631;P19793 P13631:1-454,P19793:1-462). The experiment in a line: EMSA; neither bound nor competed with ABCA1 DR4. Particulars: tags: TNT wheat germ; pCMX-hRARγ, pCMX-hRXRα; label: 32P.
Protocol: In vitro-translated RXRα and RARγ were incubated with ³²P-labeled hABCA1 DR4 element. […] (Left panel) RXRα, RARγ, and LXRβ were separately produced by using an in vitro transcription-translation wheat germ extract systems and used in EMSAs with a ³²P-labeled mouse SREBP-1c DR4b element as a probe. […] (Right panel) EMSA analysis as described in panel D but with a ³²P-labeled human ABCA1 DR4 element as a probe.
The target of data set [5] is T3, RARγ/RXRα heterodimer. Kind of data set: EMSA; neither bound nor competed with ABCA1 DR4. As to conditions: tags: TNT wheat germ; pCMX-hRARγ, pCMX-hRXRα; label: 32P.
Source text: as §1
This is another data set of the same source.

The target in the next data set is T4, RARα without RXRα (Homo sapiens, UniProt P10276 P10276:1-462).
T4 sequence: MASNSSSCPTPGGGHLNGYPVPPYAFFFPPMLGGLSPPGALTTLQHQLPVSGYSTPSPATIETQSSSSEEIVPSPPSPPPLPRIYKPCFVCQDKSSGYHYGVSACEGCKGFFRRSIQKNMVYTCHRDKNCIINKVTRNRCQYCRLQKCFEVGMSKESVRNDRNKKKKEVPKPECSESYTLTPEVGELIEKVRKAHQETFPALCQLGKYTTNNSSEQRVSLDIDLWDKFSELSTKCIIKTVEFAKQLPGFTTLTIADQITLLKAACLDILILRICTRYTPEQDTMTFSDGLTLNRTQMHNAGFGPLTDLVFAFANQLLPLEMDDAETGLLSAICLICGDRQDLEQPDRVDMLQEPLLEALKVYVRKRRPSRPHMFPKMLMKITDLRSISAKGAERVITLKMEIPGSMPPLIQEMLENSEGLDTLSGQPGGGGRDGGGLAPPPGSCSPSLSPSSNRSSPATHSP
Kind of data set: EMSA; complex only in presence of RXRα; data not shown. Particulars: tags: TNT wheat germ; label: 32P.
Source text: as §1
(§2) To further assess the possibility of a direct interaction between RARγ and the human ABCA1 promoter, a gel shift assay by using oligonucleotides consisting of the DR4 element was carried out. […] It was also determined whether RARα and RARβ could bind the ABCA1 DR4 element.

For the next data set, the target named is T5, RARβ without RXRα (Homo sapiens, UniProt P10826 P10826:1-455).
T5 sequence: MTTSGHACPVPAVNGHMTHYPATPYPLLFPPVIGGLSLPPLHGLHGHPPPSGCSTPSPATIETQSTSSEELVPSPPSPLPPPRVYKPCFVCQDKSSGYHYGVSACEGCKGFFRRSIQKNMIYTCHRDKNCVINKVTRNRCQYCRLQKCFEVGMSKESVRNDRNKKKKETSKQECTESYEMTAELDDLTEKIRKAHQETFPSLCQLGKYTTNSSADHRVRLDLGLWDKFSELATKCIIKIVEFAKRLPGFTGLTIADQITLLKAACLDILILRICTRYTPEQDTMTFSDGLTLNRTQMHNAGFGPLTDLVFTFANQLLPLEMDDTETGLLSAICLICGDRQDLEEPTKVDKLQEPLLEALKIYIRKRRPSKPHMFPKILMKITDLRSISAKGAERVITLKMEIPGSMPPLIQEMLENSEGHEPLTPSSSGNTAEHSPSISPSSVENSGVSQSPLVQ
The description is as above. Particulars: tags: TNT wheat germ; label: 32P.
Source text: as §1, §2

The next data set has as its target T6, RARγ without RXRα (Homo sapiens, UniProt P13631 P13631:1-454).
T6 sequence: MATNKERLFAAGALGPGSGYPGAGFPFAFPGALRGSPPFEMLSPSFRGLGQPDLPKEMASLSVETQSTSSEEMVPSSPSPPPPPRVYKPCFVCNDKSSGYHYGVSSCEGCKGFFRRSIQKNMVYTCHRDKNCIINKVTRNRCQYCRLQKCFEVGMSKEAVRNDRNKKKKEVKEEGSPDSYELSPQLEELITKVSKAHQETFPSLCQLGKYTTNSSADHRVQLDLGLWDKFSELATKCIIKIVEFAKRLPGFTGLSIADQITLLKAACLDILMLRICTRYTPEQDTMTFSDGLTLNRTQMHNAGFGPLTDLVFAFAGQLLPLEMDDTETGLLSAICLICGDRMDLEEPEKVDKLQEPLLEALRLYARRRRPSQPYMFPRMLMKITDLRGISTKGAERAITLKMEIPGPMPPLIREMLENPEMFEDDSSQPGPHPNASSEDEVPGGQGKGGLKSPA
Described as above. Particulars: tags: TNT wheat germ; label: 32P.
Source text: as §1, §2

Data set [6] deals with T3, RARγ/RXRα heterodimer. Kind of data set: EMSA; supershift with anti-RXRα and anti-RARγ; competed by 30-fold cold wild-type DR4. Particulars: tags: TNT wheat germ; pCMX-hRARγ, pCMX-hRXRα; label: 32P.
Source text: as §1, §2

For data set [7], the target named is T1, RARβ/RXRα heterodimer. The experiment in a line: EMSA; data not shown. As to conditions: tags: TNT wheat germ; label: 32P.
Source text: as §1, §2

The target in data set [8] is T2, RARα/RXRα heterodimer. Kind of data set: EMSA; data not shown. As to conditions: tags: TNT wheat germ; label: 32P.
Source text: as §1, §2

T1 sequence (P19793 whole entry, one chain of several): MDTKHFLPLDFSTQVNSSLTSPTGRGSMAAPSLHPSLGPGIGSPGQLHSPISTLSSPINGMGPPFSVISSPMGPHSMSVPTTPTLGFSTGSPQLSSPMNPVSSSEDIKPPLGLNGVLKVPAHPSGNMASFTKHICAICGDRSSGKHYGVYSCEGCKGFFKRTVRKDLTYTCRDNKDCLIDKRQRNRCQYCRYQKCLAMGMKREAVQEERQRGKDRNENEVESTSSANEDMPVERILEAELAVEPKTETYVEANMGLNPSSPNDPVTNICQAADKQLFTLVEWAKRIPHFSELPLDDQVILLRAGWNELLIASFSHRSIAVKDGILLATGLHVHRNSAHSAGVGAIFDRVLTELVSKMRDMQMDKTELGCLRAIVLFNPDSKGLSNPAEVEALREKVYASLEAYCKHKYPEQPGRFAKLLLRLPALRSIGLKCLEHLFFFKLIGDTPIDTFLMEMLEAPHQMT
T2 sequence (P19793 whole entry, one chain of several): as above
T3 sequence (P19793 whole entry, one chain of several): as above

On to `CC1=C(/C=C/C(C)=C/C=C/C(C)=C\C(=O)O)C(C)(C)CCC1` [13-cRA, isotretinoin], for which the “hepatic apoCIII expression” value in the data set on apoCIII was “increases hepatic apoCIII expression”.
Take `O=S(=O)(c1ccccc1)N(CC(F)(F)F)c1ccc(C(O)(C(F)(F)F)C(F)(F)F)cc1` [TO-901317]: in data set [1], the “increase in cholesterol efflux to apoA-I, ATRA compared with TO-901317” value was “comparable increase in cholesterol efflux to apoA-I”.

B1: SREBP-1c DR4 element b (dsDNA)
DNA 1: ACTGGGACGCCCGCTAGTAACCCCGGC
DNA 2: GCCGGGGTTACTAGCGGGCGTCCCAGT
Take B1: the binding result with RARβ/RXRα heterodimer [2], in the data set with RARα/RXRα heterodimer [3] and with RARγ/RXRα heterodimer [4] was “no binding” in each case.

B2: SREBP-1c DR4 element a (dsDNA)
DNA 1: ACTGCAGTGACCGCCAGTAACCCCAGC
DNA 2: GCTGGGGTTACTGGCGGTCACTGCAGT
Consider B2, for which the binding result in the data set with RARβ/RXRα heterodimer [2], with RARα/RXRα heterodimer [3] and with RARγ/RXRα heterodimer [5] was “no binding” in each case.

B3: ABCA1 DR4 element (dsDNA)
DNA 1: ACTGGGCTTTGACCGATAGTAACCTCTGCGCTCG
DNA 2: CGAGCGCAGAGGTTACTATCGGTCAAAGCCCAGT
With B3, the binding result with RARα without RXRα is recorded as “no binding”; with RARβ without RXRα, “no binding”; with RARγ without RXRα, “no binding”; with RARγ/RXRα heterodimer [6] it was “binds”; in the data set with RARβ/RXRα heterodimer [7] it was “binds”; in the data set with RARα/RXRα heterodimer [8] it was “binds”.

These data come from patent US20060009520A1, “Retinoid-based methods for altering macrophage cholesterol” (priority 2004, published 2006).
